± gives the standard deviation of the averaged measurements.

38 sequences from the supplement of paper PMC10724198 can be followed below.

Data set [1] deals with Saccharomyces cerevisiae. Put plainly: protein stability index of tFT-peptide fusion in wild type (PSI (0-1 scale)); higher = more stable (slower turnover). Conditions: genetic background: wild type.
For data set [2], the system named is Saccharomyces cerevisiae. Put plainly: protein stability index of tFT-peptide fusion (C-terminal peptide) (PSI (0-1 scale)); higher = more stable (slower turnover). Here is the method:
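MPS profiling in S. cerevisiae of the tFT-X12 degron library: putative degron peptides plus stable controls, 12 aa, fused to the C-terminus of a sfGFP-mCherry timer. Cells are FACS-sorted into 8 mCherry/sfGFP bins and deep-sequenced. PSI runs from 0 (unstable) to 1 (stable). Backgrounds are wild type, das1Δ and doa10Δ at 30 °C, and wild type, das1Δ, cdc34-1 and cdc53-1 at 37 °C; 2-3 technical replicates each.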

In data set [3] the test system is Saccharomyces cerevisiae. Described as above. Conditions: genetic background: wild type; temperature: 30 C.
In data set [4] the test system is Saccharomyces cerevisiae. Description: protein stability index of tFT-peptide fusion in deletion strain of DOA10 (PSI (0-1 scale)); higher = more stable (slower turnover). The protocol: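 MPS profiling in S. cerevisiae of two library types built from selected 12-aa C-degron peptides (IN1, IN2, LN1, LN3, VN2, R1-R5, W1-W3, Atg1 and Rpa12 C-termini): saturation mutagenesis libraries and C-terminal +1 capping libraries (13 aa). Each peptide is fused to the C-terminus of a sfGFP-mCherry timer, after a GGGS linker. Cells are FACS-sorted into 8 mCherry/sfGFP bins and sequenced. PSI runs from 0 (unstable) to 1 (stable), measured once in wild type and in the das1Δ or doa10Δ background.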
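Wherever protein stability index of tFT-peptide fusion (C-terminal peptide) is given: PSI is a weighted mean of sequencing reads over stability bins, variants kept only with over 10 reads, mCherry proximal and sfGFP distal, peptide attached via GGGS linker.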
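Wherever protein stability index of tFT-peptide fusion in deletion strain of DOA10 is given: PSI per variant is the weighted mean of its sequencing read distribution over the sorted stability bins, counting only variants with over 10 reads summed across bins.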
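Wherever protein stability index of tFT-peptide fusion in wild type is given: PSI derived as read-weighted mean over the 8 sorting bins, only variants exceeding 10 total reads kept, mCherry placed adjacent to the peptide and sfGFP distal.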

Consider GLYMCSVGCWFR, for which the protein stability index was 0.264 in the data set with Saccharomyces cerevisiae [1]; 0.104 ± 0.0033 with Saccharomyces cerevisiae [2] (genetic background: cdc34-1, temperature: 37 C); 0.0717 ± 0.0099 in the data set with Saccharomyces cerevisiae [2] (genetic background: cdc53-1, temperature: 37 C); 0.223 ± 0.033 with Saccharomyces cerevisiae [2] (genetic background: das1 deletion, temperature: 30 C); 0.2809 ± 0.001 in the data set on Saccharomyces cerevisiae [2] (genetic background: das1 deletion, temperature: 37 C); 0.586 ± 0.011 in the data set on Saccharomyces cerevisiae [2] (genetic background: doa10 deletion, temperature: 30 C). The protein stability index in the data set on Saccharomyces cerevisiae [2] (genetic background: wild type, temperature: 30 C) came to 0.231 ± 0.018; in the data set on Saccharomyces cerevisiae [2] (genetic background: wild type, temperature: 37 C) it was 0.252 ± 0.0062; in the data set with Saccharomyces cerevisiae [3] it was 0.408 ± 0.085; in the data set with Saccharomyces cerevisiae [4], 0.629.
As to RSLRVLKPLYFR, the protein stability index in the data set with Saccharomyces cerevisiae [1] amounted to 0.304; in the data set on Saccharomyces cerevisiae [4], 0.675.
For RSLRVLLFLYFR, the figures for the protein stability index with Saccharomyces cerevisiae [1] and in the data set with Saccharomyces cerevisiae [4] were 0.21 and 0.45, respectively.
On the same counts, the results for RSLRVLLPLAFR are 0.37 and 0.652.
The matching figures for RSLRVLLPLYCR: 0.266 and 0.457.
Turning to RSLRVLLPLYFC, the protein stability index stood at 0.0775 in the data set with Saccharomyces cerevisiae [1] and 0.175 in the data set with Saccharomyces cerevisiae [4].
On the same counts, the results for RSLRVLLPLYFRR are 0.315 and 0.675.
On the same counts, the results for RSLRVLLPLYFRW are 0.215 and 0.677.
RSLRVLLPLYFV: the protein stability index in the data set with Saccharomyces cerevisiae [1] amounted to 0.25; in the data set with Saccharomyces cerevisiae [4], 0.428.
The matching figures for RSLRVLLPLYFW: 0.339 and 0.589.
Consider RSLRVLLPLYYR, for which the protein stability index is 0.375 with Saccharomyces cerevisiae [1] and 0.657 in the data set on Saccharomyces cerevisiae [4].
On the same counts, the results for RSLRVLMPLYFR are 0.254 and 0.697.
On the same counts, the results for RSLRVWLPLYFR are 0.166 and 0.693.
The matching figures for RSTRVLLPLYFR: 0.292 and 0.684.
With RVTHLDAIYFRI, the protein stability index is 0.471 in the data set with Saccharomyces cerevisiae [1] and 0.645 in the data set with Saccharomyces cerevisiae [4].
Regarding RVTPLDAIYFRI, the protein stability index in the data set on Saccharomyces cerevisiae [1] came out at 0.547; in the data set with Saccharomyces cerevisiae [4], 0.675.
On the same counts, the results for RVTRLAAIYFRI are 0.173 and 0.38.
As to RVTRLDAAYFRI, the protein stability index in the data set on Saccharomyces cerevisiae [1] was 0.653; in the data set with Saccharomyces cerevisiae [4], 0.704.
The matching figures for RVTRLDAIDFRI: 0.668 and 0.746.
On the same counts, the results for RVTRLDAITFRI are 0.678 and 0.72.
The matching figures for RVTRLDAIYFEI: 0.69 and 0.725.
For RVTRLDAIYFII, the protein stability index in the data set with Saccharomyces cerevisiae [1] amounted to 0.0744; in the data set on Saccharomyces cerevisiae [4], 0.111.
On the same counts, the results for RVTRLDAIYFRG are 0.664 and 0.701.
The matching figures for RVTRLDAIYFRH: 0.604 and 0.716.
On the same counts, the results for RVTRLDAIYFRIF are 0.0593 and 0.0962.
In the case of RVTRLDAIYFRIQ, the protein stability index in the data set with Saccharomyces cerevisiae [1] worked out at 0.218; with Saccharomyces cerevisiae [4], 0.256.
The matching figures for RVTRLDAIYFRK: 0.673 and 0.711.
The matching figures for RVTRLDAIYFRS: 0.641 and 0.72.
In the case of RVTRLDAIYFRT, the figures for the protein stability index in the data set with Saccharomyces cerevisiae [1] and with Saccharomyces cerevisiae [4] were 0.546 and 0.703, respectively.
The matching figures for RVTRLDAIYFYI: 0.425 and 0.449.
In the case of RVTRLDAIYRRI, the figures for the protein stability index with Saccharomyces cerevisiae [1] and with Saccharomyces cerevisiae [4] were 0.684 and 0.721, respectively.
The matching figures for RVTRLSAIYFRI: 0.22 and 0.458.
The matching figures for RVTRLVAIYFRI: 0.19 and 0.394.
The matching figures for RVTRLWAIYFRI: 0.167 and 0.377.
Regarding RVTRRDAIYFRI, the protein stability index worked out at 0.485 in the data set on Saccharomyces cerevisiae [1] and 0.673 in the data set on Saccharomyces cerevisiae [4].
The matching figures for RVTVLDAIYFRI: 0.516 and 0.651.
As for RWTRLDAIYFRI, the protein stability index in the data set with Saccharomyces cerevisiae [1] was 0.337; in the data set on Saccharomyces cerevisiae [4], 0.528.
On the same counts, the results for SLVSLPILLFFR are 0.0746 and 0.619.
